In this series the test system is Rad51. Kind of series: EM. As to conditions: RPA pre-bound to ssDNA, no Rad52, 60 mM NaCl; all filaments complete; Rad52 EMSA: 10 mM Tris-HCl pH 8, 5 mM MgCl2, 100 mM NaCl, 37 C, 10 min, 0.27 uM XV2, 8% native PAGE; filament assays: SEB buffer, 60 mM NaCl (or titrated) …. In general terms: Mobility shift assays separate free from complexed probe on a gel.

In turn, 400-nt ssDNA fragment showed a binding signal (% of Rad51 filaments formed) of 12.5.

The values are drawn from article PMC3794917.
